Columns and labels:
Assay in all cases: co-immunoprecipitation with anti-αPDGFR antibody from F cells, Western blot
[1] = target: T1, phospholipase C-γ1 (PLCγ) (UniProt Q62077 2-1302, limits assumed)
T1 construct: Endogenous protein that co-precipitates with the receptor from F cell lysates; also called phospholipase C-gamma
T1 sequence (looked up): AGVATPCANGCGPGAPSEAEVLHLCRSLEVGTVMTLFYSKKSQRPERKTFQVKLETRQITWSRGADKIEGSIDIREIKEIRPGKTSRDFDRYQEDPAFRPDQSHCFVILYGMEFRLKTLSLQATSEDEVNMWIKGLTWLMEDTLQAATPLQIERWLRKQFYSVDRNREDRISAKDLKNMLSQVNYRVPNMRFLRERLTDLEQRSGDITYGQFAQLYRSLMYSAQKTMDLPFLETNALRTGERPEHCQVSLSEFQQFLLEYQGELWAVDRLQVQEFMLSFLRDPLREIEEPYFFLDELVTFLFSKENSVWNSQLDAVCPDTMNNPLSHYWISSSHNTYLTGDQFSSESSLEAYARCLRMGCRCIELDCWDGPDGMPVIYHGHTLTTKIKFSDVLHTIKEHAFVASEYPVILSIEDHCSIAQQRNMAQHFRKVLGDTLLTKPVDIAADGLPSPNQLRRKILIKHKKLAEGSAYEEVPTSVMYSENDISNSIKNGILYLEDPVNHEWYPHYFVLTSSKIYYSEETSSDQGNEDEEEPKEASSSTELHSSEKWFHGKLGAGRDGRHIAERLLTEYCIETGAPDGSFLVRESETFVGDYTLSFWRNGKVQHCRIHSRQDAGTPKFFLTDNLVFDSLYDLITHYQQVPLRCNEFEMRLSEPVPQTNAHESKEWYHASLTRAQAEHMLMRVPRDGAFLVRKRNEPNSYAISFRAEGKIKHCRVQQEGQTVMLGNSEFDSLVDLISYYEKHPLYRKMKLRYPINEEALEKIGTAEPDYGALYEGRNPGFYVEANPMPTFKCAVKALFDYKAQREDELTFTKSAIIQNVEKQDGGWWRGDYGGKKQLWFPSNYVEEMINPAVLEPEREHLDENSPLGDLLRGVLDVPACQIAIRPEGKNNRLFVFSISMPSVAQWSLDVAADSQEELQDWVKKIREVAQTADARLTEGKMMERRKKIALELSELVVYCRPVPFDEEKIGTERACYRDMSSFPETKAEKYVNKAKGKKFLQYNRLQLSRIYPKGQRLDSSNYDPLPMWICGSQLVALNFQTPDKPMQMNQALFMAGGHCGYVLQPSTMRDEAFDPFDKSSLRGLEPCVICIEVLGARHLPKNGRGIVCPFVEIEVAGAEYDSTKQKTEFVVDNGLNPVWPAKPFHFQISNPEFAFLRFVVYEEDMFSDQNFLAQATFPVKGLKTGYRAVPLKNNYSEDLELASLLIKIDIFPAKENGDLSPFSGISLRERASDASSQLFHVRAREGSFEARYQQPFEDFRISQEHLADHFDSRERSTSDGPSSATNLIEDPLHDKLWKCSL
Excerpt: (§1) Portions of the membrane that contained the proteins of the appropriate molecular mass were immunoblotted for PLCγ, the regulatory subunit of PI3K (p85), or SHP-2. Crude rabbit anti-p85 antibody is from Dr. A. Toker (Beth Israel Hospital/Harvard Medical School, Boston, Mass.). The monoclonal antibodies against PLCγ and SHP-2 were purchased from Upstate Biotechnology Inc.

[2] = target: T2, regulatory subunit of PI3K (p85) (UniProt P26450 2-724)
T2 construct: The catalytic subunit is not described; also called phosphoinositide 3-kinase
T2 sequence (P26450 2-724): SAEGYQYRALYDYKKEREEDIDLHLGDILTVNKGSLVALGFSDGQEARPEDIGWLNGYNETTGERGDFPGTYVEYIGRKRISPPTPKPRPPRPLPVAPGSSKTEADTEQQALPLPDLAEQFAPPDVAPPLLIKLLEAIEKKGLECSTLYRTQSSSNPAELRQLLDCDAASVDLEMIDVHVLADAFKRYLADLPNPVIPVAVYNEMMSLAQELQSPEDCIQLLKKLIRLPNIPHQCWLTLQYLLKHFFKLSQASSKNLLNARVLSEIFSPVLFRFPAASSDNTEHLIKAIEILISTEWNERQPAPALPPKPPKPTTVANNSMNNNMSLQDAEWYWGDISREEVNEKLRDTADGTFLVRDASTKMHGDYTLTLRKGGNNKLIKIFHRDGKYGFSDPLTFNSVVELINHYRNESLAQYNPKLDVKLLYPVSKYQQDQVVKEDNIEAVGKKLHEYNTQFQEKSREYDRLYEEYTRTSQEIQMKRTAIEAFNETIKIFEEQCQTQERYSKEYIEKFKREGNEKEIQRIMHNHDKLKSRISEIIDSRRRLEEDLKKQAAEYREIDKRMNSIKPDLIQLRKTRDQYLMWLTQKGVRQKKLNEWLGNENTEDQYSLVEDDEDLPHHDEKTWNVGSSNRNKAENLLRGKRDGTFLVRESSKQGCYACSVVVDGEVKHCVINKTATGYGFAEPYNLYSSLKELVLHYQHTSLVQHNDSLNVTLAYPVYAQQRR
Excerpt: as §1

[3] = target: T3, tyrosine phosphatase SHP-2 (UniProt P35235 2-593, limits assumed)
T3 construct: Endogenous protein that co-precipitates with the receptor from F cell lysates
T3 sequence (looked up): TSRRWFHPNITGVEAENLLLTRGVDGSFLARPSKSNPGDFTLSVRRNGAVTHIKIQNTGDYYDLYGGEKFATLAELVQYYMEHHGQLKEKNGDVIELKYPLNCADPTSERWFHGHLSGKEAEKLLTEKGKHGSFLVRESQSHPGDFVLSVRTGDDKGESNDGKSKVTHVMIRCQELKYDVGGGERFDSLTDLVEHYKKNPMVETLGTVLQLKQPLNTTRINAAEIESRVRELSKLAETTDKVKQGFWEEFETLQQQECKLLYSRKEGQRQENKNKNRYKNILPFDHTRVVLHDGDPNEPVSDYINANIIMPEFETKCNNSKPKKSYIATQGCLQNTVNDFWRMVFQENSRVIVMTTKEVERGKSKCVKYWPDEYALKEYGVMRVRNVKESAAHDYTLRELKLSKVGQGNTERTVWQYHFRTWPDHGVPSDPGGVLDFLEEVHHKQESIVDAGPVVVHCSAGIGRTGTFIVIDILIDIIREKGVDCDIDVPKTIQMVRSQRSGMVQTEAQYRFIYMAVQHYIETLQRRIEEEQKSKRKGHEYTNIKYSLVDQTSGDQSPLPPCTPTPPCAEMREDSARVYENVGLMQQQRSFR
Excerpt: as §1

Measured: binding result

B1: αPDGFR mutant F7 (Tyr to Phe substitution at 572, 574, 720, 731, 742, 988, and 1018) (receptor)
chain: QLSLPSILPNENEKVVQLNSSFSLRCFGESEVSWQYPMSEEESSDVEIRNEENNSGLFVTVLEVSSASAAHTGLYTCYYNHTQTEENELEGRHIYIYVPDPDVAFVPLGMTDYLVIVEDDDSAIIPCRTTDPETPVTLHNSEGVVPASYDSRQGFNGTFTVGPYICEATVKGKKFQTIPFNVYALKATSELDLEMEALKTVYKSGETIVVTCAVFNNEVVDLQWTYPGEVKGKGITMLEEIKVPSIKLVYTLTVPEATVKDSGDYECAARQATREVKEMKKVTISVHEKGFIEIKPTFSQLEAVNLHEVKHFVVEVRAYPPPRISWLKNNLTLIENLTEITTDVEKIQEIRYRSKLKLIRAKEEDSGHYTIVAQNEDAVKSYTFELLTQVPSSILDLVDDHHGSTGGQTVRCTAEGTPLPDIEWMICKDIKKCNNETSWTILANNVSNIITEIHSRDRSTVEGRVTFAKVEETIAVRCLAKNLLGAENRELKLVAPTLRSELTVAAAVLVLLVIVIISLIVLVVIWKQKPRYEIRWRVIESISPDGHEFIFVDPMQLPYDSRWEFPRDGLVLGRVLGSGAFGKVVEGTAYGLSRSQPVMKVAVKMLKPTARSSEKQALMSELKIMTHLGPHLNIVNLLGACTKSGPIYIITEYCFYGDLVNYLHKNRDSFLSHHPEKPKKELDIFGLNPADESTRSFVILSFENNGDFMDMKQADTTQFVPMLERKEVSKYSDIQRSLYDRPASYKKKSMLDSEVKNLLSDDNSEGLTLLDLLSFTYQVARGMEFLASKNCVHRDLAARNVLLAQGKIVKICDFGLARDIMHDSNYVSKGSTFLPVKWMAPESIFDNLYTTLSDVWSYGILLWEIFSLGGTPYPGMMVDSTFYNKIKSGYRMAKPDHATSEVYEIMVKCWNSEPEKRPSFYHLSEIVENLLPGQYKKSYEKIHLDFLKSDHPAVARMRVDSDNAFIGVTYKNEEDKLKDWEGGLDEQRLSADSGFIIPLPDIDPVPEEEDLGKRNRHSSQTSEESAIETGSSSSTFIKREDETIEDIDMMDDIGIDSSDLVEDSFL
notes: Expressed in F cells and immunoprecipitated from lysates
no binding: [1] | [2] | [3]

From patent US20020111304A1 (SCHEPENS EYE RESEARCH INSTITUTE, published 2002)
